# Test results from the domain aggregation screens of Martell et al. (2025).
# Test: soluble fraction after stress (log2 fold change); higher = more stays soluble; pooled small domains, quantitative proteomics
# Conditions: stress: 50 degC
# Procedure, shortened: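 Quantitative proteomics served as the high-throughput read-out for pooled custom libraries of small protein domains. Each was stressed at 50°C. Aggregation propensity is expressed as the base-two log fold change in soluble protein after stress. A higher value means a larger share of the protein remains in solution.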
row,Sequence,soluble fraction (log2)
1,HMSERVVEIDPSQLRPGLFIRLPSGWMNHPFLFNQFRINSAEQVEIIQKLGLKTVQYLPERSSTQALPRA,-0.499
2,HMSESEDFQNRWRPWRSLLDDETPVVREALVDQLKLFPEEGRLFLQQMSEEDDPISARHAFELIKSLGW,-0.132
3,HMSETAVTYNEDFEADGSLRPNEQAVLDAFTGVLKLTVSELEKKTGLRNVVPVVASLMAKGAVEVSEELK,0.0501
4,HMSETEWGEIYRKVMAAGLIPARSVRERLLALPSIEPLLQAAEAAGSKGMLDETLLDSLLSKT,0.134
5,HMSETLESYTTRLKQLEEIADSFQGVDKTFAIQAGREIRVMVVPEQISDDDMILLARDISNQIEENLDY,-0.122
6,HMSEVIYVAEDNVGQRIDVFLVNKLVDASRANIQKNIVDGVILVNNKNVKANYKLRLGDVVEIRTQ,0.156
7,HMSEVPAAVLVTGGSINLREAPSTDATIIDVAQVGEKMTVLAEKNSWYQVSRGGRNVWVASWVVDPLT,0.208
8,HMSEVTYQETLRLLRRAIDVLPQQSRQIILLGLSGKNNNEVAEMLGISVNTVKTLKKGAYKSLRNSL,-1.66
9,HMSEYITEGWLREKFGLGWGTEVHLPLDSRLTPAAHQLLEERKIVIKYIDAEGRVFNPDKSGEEAPVQ,0.0587
10,HMSEYVIVTGEKVNLRVGPGMDYEIAGQVVKGDKLELLASEGDWSKVKTGSGSIYYISSSLVQKA,-0.238
11,HMSFDGFSDRLKSVLNSGKYTQKEAAEKINISEYSFTKYLNGRIPQTEILYKIARLYNKSMEWLLTGKDPI,-2.01
12,HMSFGWELYKGKEGIADTDLHPSGWIRIADKRVFAVSEGEFIEKGLEIIVLSVDGNRIVVRELK,-1.39
13,HMSFGWETLEGKEGVTDTDLHPSGWVKVGDEKIFVVSQGEFLGKGTDIVVVSVDGNRVVVKELI,-0.694
14,HMSFKQARFMMDAANGKALAWLYSHAEVLDRKDQGENIEIHVMISPADLSRFVNAFGYQPVQS,-0.2
15,HMSFMFEISVIRSQYNMQDPESKTGFYNAIAKKLLEFPEKLERDNYTEAVAREYMIPETDLKNLVNSMGG,-2.17
16,HMSFNGTILSNYQKTYPNLAKFTYDQANDALVYEGNFIKLNGYGLSRIDPVFFNMNPDEIFIFIKNG,-3.51
17,HMSFNTNENKNLLWELMNKHNLFKDIDNQHYQEVQKLFEEEIVFISNNNKSLDLVEQNKKFLSSIITKLNK,-1.41
18,HMSFPQVELNTNKGRIVLELNSEKAPKTVANFLEYVRDGFYDGVIFHRVIDGFMIQGGGFDENFKEKA,-0.229
19,HMSFSPYLVRVSITDLNIRKGPGTNYAKTGKFTGKGVFTIVEMQTGKGSDTGWGRLKSGAGWISLDYTEKI,-3
20,HMSFSQNIGKRIREERLRLNLTQEKLAEDVNLSMAYIGQVERGDRSLTLDNLIIVAKRLGVTIDYLLS,-1.25
21,HMSFTSQSVLIEIVRGTTQLTPLAAAVGANKREVVLAVHRLKQRGLVVSAGLGQYAATEAGRAFLTAGREV,-2.76
22,HMSFYSVVISQDGSMLVAENRNEIYSNEELLELASEVNEKTGTIGTIGSLMYYKADKGGYTLITFLDNS,-3.02
23,HMSGALDTVVGIRMLKLLSTPIEKSKAFQVGIINKDGKKLRDPTSGERQHYTFLNRFVFKVQYALMRS,-0.211
24,HMSGDYRPLYPNLPESEKSEAFNLLAGSALPARLDDRTGDIMVPADRYYEARMILANAGFAD,0.0141
25,HMSGEMGIIVAKRLPIRSEPDELATRAFVLKAGTRVKIVKHLNGWLEIVHDGKAGYVQDLEVYVRVIG,-0.524

row,Sequence,soluble fraction (log2)
1,HMSGEPVKSTLPGNVFKILVAVGDSVKKGQRMFVLEAMKMEIDVNAPKDGLVTSIEVQQGQTVANGQILAK,0.0741
2,HMSGIESIVIPLKGLDFDMISSTLTPQLKQAIKYDKQSDSIILVGTNAKVNIIAKQVNAMVEVYKLKT,-0.444
3,HMSGIGTTIKMLRENKNISQEELGNVLGVSDKTISSWEINRTEPKMGIVQLLADYFGVSTDYLIKG,-0.146
4,HMSGILINGELYKPGEQMSLKQRLSIQARIQMQGEDTVKPEMLKDFYNSGGPLSKEESSEYMKSQN,-0.153
5,HMSGIQNNFITRLKKVLAPTIGIAEEISDLLNISIDSAYRRIRGETDFTFEEIYIITRKHKISIDEIYG,-3.58
6,HMSGIVPAAPPLRPDLDIKWHTGDKVRHAKWGEGTIVSVKGEGEETELKIAFPGQGIRPFMQKYAPITR,0.163
7,HMSGLEDIKKKILEDAGIKKGSVKFVKVDKDYDDGIWKYEIDFVYDGKEYEYEIEVETGKILSRKTEKSD,-0.317
8,HMSGLVPAIGTKGEEGYIRESDIPGSNVKNPEEALAYMEWLKTQPSELLIPLYDEQGNVIGQFAVS,0.07
9,HMSGMEKLAIQEIEKEIKSFVKGDILIELTGKNRATAYVSEKNVGALIGKKGERINSIEKRLGVGIDVRPY,0.00444
10,HMSGMNSDHRVNGNIHTFLIQHDLGTKWSVFTEQLLKQVFRSFLPDKELNFQTTDSTVILKVSLGSDFNEH,-0.0505
11,HMSGPAEDLLAIEGMDKELAYELAARGIRTRDELADQSLDELEAVPGLDPVRAGQLIMAARAHLFENAGQ,-0.124
12,HMSGRSVSYSEFMSRVEAGQVSSVTLDGERVEVTGSDGSRYVTIAPSDATLTDKLVAKGVEVRADP,0.102
13,HMSGSKEQQIVILNNILERQLQAFGLQGNREFPMVTLKNIYNSLSKIIENAGLKNVENYFVNPEQGKQM,-0.256
14,HMSGTFIGGELVKPGEPLTPMQRAAITMGLQMGNTYSPEIMEKYNNAGGSPSKEEFENYQKNKS,0.101
15,HMSHGFFELKTTQKEALIKLLDSHPNFTHTKTEADLTTAFLKLPMDAEQFNKLLFTNGIVLSHLVKRK,-0.668
16,HMSHGYVEMQAKDDQVLLAALKNHPWFEKVSIDEETGLTKAILTQPIEAEELNSMLFEKGIVLSHLVKRK,0.234
17,HMSHISLGQRYKIEGYLQINLKRTQIAKEIGLPKKTVNQEIKRNSNPQTGIYKAEEAHQLYLDRMQKKRK,-0.131
18,HMSHKYKLTVPETGEGTRVDKFLSSALTELSRTRLKSLIEEGQVTLGGVKLTNPSHRVKSGDELNIEIPVP,0.146
19,HMSHPNAPLTPEGRRRLAVLIVEDGWTIRRAAERFQVSPATASKWARRYRAGESLTDRSSRP,-1.58
20,HMSHSDMEEWTDAVRSRRKKLGLTQVQIARRLGVTSHHFSQIESGRTIPSASLQIEIDRLLKNWND,-0.963
21,HMSHSVLIDISQLRIGMYIQLDVGWMHHPFPVSSFRVASLEQIEALRTLNLAQVRYFPAKSDPV,-3.6
22,HMSIAEMSGARKSAILLLALDEDSAAEIFKYLSAGEVQEISMEMAKLNQVSHDDMKAVLEAFHKETEEFV,-0.542
23,HMSIAKIIGDRIRAYRNQKGWSQEYLAEKADVHHTYIGQLERGEKNATIESISKIAGALGVSLSRLFEN,-0.0998
24,HMSIEHVPGYTTLSKREQEIVHALLTRKTPEELADDLSISINTLNKHISHIYHKLGIRGRMQLFDYA,-0.284
25,HMSIEIKTIDVKHADLFQLQDILRNLYPELNIVPDQRNNKLILQGKRELLVEAERLTLQLDTE,0.0556
